From paper PMC6815173
Read-outs that look alike come from different tables or passages of the source.

Experiments:
Experiment in all cases: SPR
[1] = biological target: M domain of α-catenin (human)
[2] = biological target: actin-binding domain (ABD) of α-catenin (human)
[3] = biological target: actin-binding domain (ABD) of α-catenin (human); remark: listed apart in the source

Question: Which results are given for “β-catenin•epithelial cadherin cytoplasmic domain complex (BE) (from UniProt P35222;P12830)”?
Answer: Kd [1]: 0.104 µM; koff [1]: 0.0013 s⁻¹; Kd [2]: 0.466 µM; Kd [3]: 0.486 µM
